Measured values published in doi:10.1101/2024.06.16.598887 (bioRxiv, 2024).
Read-outs that look alike come from different tables or passages of the source.

Legend:
[1] = biological target: T1, pig (Sus scrofa) skeletal muscle alpha-actin (pig (Sus scrofa), UniProt P68137 1-377); assay: ITC
[2] = biological target: T1, pig (Sus scrofa) skeletal muscle …; assay: ITC; remark: listed apart in the source

B1: Anopheles gambiae actin depolymerizing factor (natural protein)
chain: MASGVTVSDVCKTTYEEIKKDKKHRYVIFYIRDEKQIDVEVIGDRNAEYDSFLEDIQKGGPGECRYGLFDFEYMHQCQGTSESSKKQKLFLMSWCPDTAKVKKKMLYSSSFDALKKSLVGVQKYIQATDLSEASREAVEEKLRATDRQ
Kd [1]: 1.6 nM | dH [1]: -14.1 ± 0.1 kcal/mol | Kd [2]: 0.8 nM | dH [2]: -13.6 ± 0.1 kcal/mol | stoichiometry N [2]: ~1
